According to patent US20100056445A1, “ADIPONECTIN FOR THE TREATMENT AND DIAGNOSIS OF ALBUMINURIA” (THOMAS JEFFERSON UNIVERSITY, priority 2006, published 2010):
“Also recorded” adds a separate entry of the source.

Test system: Adiponectin KO (Ad−/−) mice
Experiment: Podocyte foot process effacement by electron microscopy in adiponectin KO mice
Format: in vivo, mouse
Conditions: gAd treatment, EM
Experimental: Adiponectin administration and animal studies: The mice were treated with 25 μg of recombinant human globular domain adiponectin (gAd; PepROTech, Rocky Hill, N.J.) subcutaneously twice daily for 10 consecutive days. The control animals were given PBS alone. 24-hour urines from each mouse were collected twice: one week before the injections and on the last day of the injections. The urine albumin and creatinine were measured with a mouse Albuwell ELISA kit and a Creatinine Companion kit (Exocell, Philadelphia, Pa.) (25,26). The mice were sacrificed five hours after the final gAd injection under anesthesia. Portions of kidney cortex were fixed in buffered formalin and embedded in paraffin. […]
Interventional animal studies: The mice were treated with 25 μg of recombinant human globular domain adiponectin gAd (PepROTech, Rocky Hill, N.J.), administered 25 μg/mouse twice a day for 10 consecutive days or full-length adiponectin (fAd) was administered using an AAV vector (AAV2/8 CMV fAd virus 4×1011 GC/mouse for 10 days). […] The urine albumin and creatinine were measured with a mouse Albuwell ELISA kit and a Creatinine Companion kit (Exocell, Philadelphia, Pa.) (26, 25). As an index of oxidant stress timed urine collections were also analyzed for hydrogen peroxide by Amplex red assay (Invitrogen/Molecular Probes, Carlsbad, Calif.) following the manufacturer's protocol. […]

B1: adiponectin: 30 kDa adipocyte-secreted protein; in the first series of tests the recombinant globular domain was used, later gAd or fAd (protein, UniProt Q15848 19-244, looked up)
Adiponectin: ETTTQGPGVLLPLPKGACTGWMAGIPGHPGHNGAPGRDGRDGTPGEKGEKGDPGLIGPKGDIGETGVPGAEGPRGFPGIQGRKGEPGEGAYVYRSAFSVGLETYVTIPNMPIRFTKIFYNQQNHYDGSTGKFHCNIPGLYYFAYHITVYMKDVKVSLFKKDKAMLFTYDQYQENNVDQASGSVLLHLEVGDQVWLQVYGEGERNGLYADNDNDSTFTGFLLYHDTN
Podocyte foot process fusion / effacement: improved podocyte foot process effacement; also recorded: restored podocyte foot processes
